From the Immune Epitope Database (IEDB)

How the values were obtained:
Test in all cases: IEDB peptide-MHC binding, purified MHC/competitive/radioactivity; filed as Kd, often an IC50 or EC50 that approximates it; ≥ and ≤ were set here for values at or beyond the usual limits of such assays
HLA-A*68:01 = molecular target: HLA-A*68:01
HLA-A*11:01 = molecular target: HLA-A*11:01
HLA-A*31:01 = molecular target: HLA-A*31:01
HLA-A*33:01 = molecular target: HLA-A*33:01
HLA-A*03:01 = molecular target: HLA-A*03:01
[1] = source organism: SARS coronavirus Tor2
[2] = source organism: Dengue virus 2 Peru/IQT2913/1996
[3] = source organism: Vaccinia virus WR
[4] = source organism: Dengue virus 1 Brazil/97-11/1997
[5] = source organism: Dengue virus 4 Philippines/H241/1956
[6] = source organism: Vaccinia virus Copenhagen
[7] = source organism: Dengue virus 3 Martinique/1243/1999
[8] = source organism: Dengue virus 2 Jamaica/1409/1983
[9] = source organism: Mammarenavirus brazilense

Sequence	Kd (HLA-A*68:01; [3]) [nM]	Kd (HLA-A*11:01; [3]) [nM]	Kd (HLA-A*31:01; [3]) [nM]	Kd (HLA-A*33:01; [3]) [nM]	Kd (HLA-A*03:01; [3]) [nM]	also measured
FVASFRLFAR	–	–	–	–	–	Kd (HLA-A*68:01; [1]): 0.106 nM; Kd (HLA-A*11:01; [1]): 50 nM; Kd (HLA-A*31:01; [1]): 6.64 nM; Kd (HLA-A*33:01; [1]): 14.1 nM; Kd (HLA-A*03:01; [1]): 94.2 nM
FVCKHSMVDR	–	–	–	–	–	Kd (HLA-A*68:01; [2]): 1050 nM; Kd (HLA-A*31:01; [2]): 117 nM; Kd (HLA-A*33:01; [2]): 122 nM
GILKKLSSIK	≥ 20100	375	5480	≥ 70000	13.9	–
GLLFRRLTSR	–	–	–	–	–	Kd (HLA-A*31:01; [4]): ≥ 53700 nM; Kd (HLA-A*03:01; [4]): 170 nM
GLTTHCTKLR	12100	4630	511	4210	5180	–
GSTAEQLSK	≥ 43000	14	≥ 77900	≥ 77700	307	–
GVIADYNYK	–	–	–	–	–	Kd (HLA-A*68:01; [1]): 72 nM; Kd (HLA-A*11:01; [1]): 5.97 nM; Kd (HLA-A*31:01; [1]): 126 nM; Kd (HLA-A*33:01; [1]): 4910 nM; Kd (HLA-A*03:01; [1]): 23.8 nM
HINALEYIIK	35.9	87.9	1520	200	117	–
IAVSTANIFR	–	–	–	–	–	Kd (HLA-A*68:01; [5]): 9.46 nM; Kd (HLA-A*33:01; [5]): 1050 nM
IFAFIDFSK	–	–	–	–	–	Kd (HLA-A*68:01; [6]): 8.56 nM; Kd (HLA-A*11:01; [6]): 20.5 nM; Kd (HLA-A*31:01; [6]): 251 nM; Kd (HLA-A*33:01; [6]): 42.6 nM; Kd (HLA-A*03:01; [6]): 78.2 nM
IFREIASSMK	3470	1570	425	467	198	–
IITPVVFYR	0.0181	0.322	1.08	6.62	59.2	–
IMVASDVCK	408	369	991	3480	150	–
ISARALKAY	2470	334	9600	16400	542	–
ISIMIEEVMR	–	–	–	–	–	Kd (HLA-A*68:01; source organism: Dengue virus 1 Singapore/S275/1990): 82.3 nM
ITNITTDSR	–	–	–	–	–	Kd (HLA-A*68:01; [7]): 26.3 nM
ITPDDGLGLR	69.2	16200	11600	9910	≥ 70100	–
ITVDDDGTMR	–	–	–	–	–	Kd (HLA-A*68:01; [7]): 77.3 nM
ITVNPIVTEK	–	–	–	–	–	Kd (HLA-A*68:01; [8]): 154 nM; Kd (HLA-A*11:01; [8]): 69.2 nM; Kd (HLA-A*03:01; [8]): 24.1 nM
IVNNQESNK	–	–	–	–	–	Kd (HLA-A*68:01; [6]): 111 nM; Kd (HLA-A*11:01; [6]): 147 nM; Kd (HLA-A*31:01; [6]): 1180 nM; Kd (HLA-A*33:01; [6]): ≥ 77700 nM; Kd (HLA-A*03:01; [6]): 132 nM
KCSDHYICLK	–	–	–	–	–	Kd (HLA-A*68:01; [9]): ≥ 70100 nM; Kd (HLA-A*11:01; [9]): 1890 nM; Kd (HLA-A*31:01; [9]): 482 nM; Kd (HLA-A*33:01; [9]): 8220 nM; Kd (HLA-A*03:01; [9]): 276 nM
